Assay results from a protein production outcome set (Wang et al. 2014).

Experiment: label from the status in PepcDB records
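Further: failed if final PepcDB status was selected cloned or expressed and not failed if soluble or beyond.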

| Sequence | protein production |
| --- | --- |
| MNFNQFENQNFFNGNPSDTFKDLGKQVFNYFSTPSFVTNIYETDELYYLEAELAGVNKEDISIDFNNNTLTIQATRSAKYKSEQLILDERNFESLMRQFDFEAVDKQHITASFENGLLTITLPKIKPSNETTSSTSIPIS | failed |
| MNFNYQTAWPSLSRSFEWSPAMTSSSVNPAEKFDRSRADEYARQSRIALAGYDACHDLAACMLAASLGEGRAAHILAVGAGGTAQEIIAMASLEPGWRFTAVDPSAPMLETARQQLQAQGLLERTEVRLATVDELAADEPFDGATLIGVLHHLPGDEAKRQLLRAIARRLKPGAPLIVAGNHYAYAGQPLLLAAWGQRWRQQGATADEVHAKLGKILQGADPPHSEAAVQRLLEEGGFSAGTRFFSSLFWGAWLSRKRC | failed |
| MNFSESFKLSGLLCRFSPDGKYLASCVQYRLVIRDVTTLQILQLYTCLDQIQHIEWSADSLFILCAMYRRGLVQVWSLEQPEWHCKIDEGSAGLVASCWSPDGRHILNTTEFHLRITVWSLCTKSVSYIKYPKACQQGLTFTRDGRYLALAERRDCRDYVSIFVCSDWQLLRHFDTDTQDLTGIEWAPNGCVLAAWDTCLEYKVLLYSLDGRLLSAYCAYEWSLGIKSVAWSPSSQFLAIGSYDGKVRLLNHVTWKMITEFGHPATINNPKTVVYKEAEKSPLLGLGHLSFPPPRAMAGALSTSESKYEIASGPVSLQTLKPVADRANPRMGVGMLAFSSDSYFLASRNDNVPNAVWIWDIQKLKLFVVLEHMSPVRSFQWDPQQPRLAICTGGSKVYLWSPAGCVSVQVPGEGDFPVLGLCWHLSGDSLALLSKDHFCLCFLETKERVGTAYEQRDGMPRT | failed |
| MNFVELAKKRYSCRNYQDRKVEKEKLEKVLDVARIAPTGGNRQPQRLIVIQEKEGINKLSKAANIYDAPLAILVCGDKDKVWTRPFDGKQLTDIDTSIVTDHMMLQATELGLASVWVCYFNPDIIREEFSLPDNLEPINILLMGYESKIPESPERHEKTRVPLSEIVSYETL | failed |
| MNFVLSDVADAEAEKAIRDPLVAYNLARFGESDKRDLNITIRNDDNSVTGGLVGHTARGWLYVQLLFVPEAMRGQGIAPKLLAMAEEEARKRGCMGAYIDTMNPDALRTYERYGFTKIGSLGPLSSGQSITWLEKRF | not failed |
| MNGKLNLPINTVIGVSLLVLLLVPALYFAKPVLLPMVISTFVALLFSPLINYFEDKGLPRTITVVVTLTLLVSVSILGLAAISEPAKQWWAELPSIVQNVSQEVNEVTKASSEHMNAPLELASDMNIDEMGNNTVFSLLKALATTTPTLLTQAMIVLFMVYFMLNHGRSLFRKSVSRLRGFSKQRQAVELVQALQKDLSRYIGTITLVNAGLGLCVGLVFFVLGLEDPFLWGAFAGVMNFAPYLGPVISMASFGFVAYLQLDSVSFMLTVVSIYLLLNLIESQFVTPTLLGRRFNLNPLVIFMWLVFWGWLWGGMGLLIGVPLLVCINILADRLALCGSTNI | failed |
| MNGMGGALRAASGKLNGLLNFARQLAFVKLFGVYLPRNNQFNNATACADLLCKAEVIPGSESHFRPRRQPDASGAASGIAGRQSAGASGARQQSSNEENHDARRHGRRGRVHRDRAFRNRMRGERSARRHRSGIGRLIRRALRSRAAHGIARRRVSRAIAGGVGRGRPGRGHDARGGDAGRRRRDGRAIRAAAGCGHARAGRARAGHAHVGRARVRRHDSRRFVAMGEYGGLAARLGCARRFQHRCAGDAARLVRGCAAGARREPRPHVRADPGDSLSRQSRVARCRARSGLMRVLFAISLLAVAWLAGCTGLRGGIERDARRESNESAALFKRASDGDNSVHALAPVVVDDGLWVSAGAVKLRSGEQLPPLFDEPASFDRAVSSLSEFAEQITRLTQVPTQVAASAQQAAARSQQGGGADGAARSAPVFLDAAGARSTPPLPPGMPGGASAGGGKAGGSGAGPDGGAGTSFAPVRIVYAGGTLRGLLDAACARFGVFWKYEQGTIRFFFTDTRTFQVNAIPGDSSLNASVVSGATSDGTSGGSQSGGSGGGINGASGGTTGLTANNTANTAVNSQLSVFNGLQSAIQSMLSRYGSSVSSPATGSISVTDTPDVLERVAAFMTQQNRSLSRQVLLNVTVLSVSLKAGDAYGIDWSLVYKTMSAGFNITNPFNPVSLTKPADLSATVLSPTSRFNGTKLLIRALSQQGTVRRKTSASVTTLNNQPVPVQVATQTGYLASVSTTNTANVGSSTALTPGVVTTGFNMTLLPHVLDDGTVMLQFSTNISSLLQLKEVSSSTGGRSAARIQTPDVDMRNFLQRVAMKSGETLVISGYEGANDSLDERGVGTPKMIALGGGYEAQRAREVIVILITPVTQRGGA | failed |
| MNGPAYEGGFKKFINGEFRMKAEKNLNKTRNISYAGLFFSLALTIFKLFAGLLGHSTALLADAVRSFSELINELVKLLDLSIAGKPEDWSHNYGHGKVATLVTGAGACVLLFAGIQSASLASGELLMFIQGKETEAPELFALSAAAFALVSKEIIPLFSRLAWKQTDKSLSETDIYTGNSRLKSLGLSCFVTLGIGCTFLPGKNWAVTDSLIAVLLSLYLLGSSGRLLYGTANELIEASLDEENNRKIREIINRTEGVLGSGELKTRRIGNGIAINACITVNSSLNIQEVAEIADLAEERLKKAYGEGIYTLIKAEPALERNCSFQKKPKISKEGGNKIIV | failed |
| MNGRMSLFLRNSIGVMAAMLAGVATPVANAMDNSLASGVVRFALDTGEASSVVGLAMKLEGESADYLQARLMLASGQHDEARAGFEGVFNGASHRGEAALALAEMAQEDGDLTGAENWYQQARRTGYGEVAQKALLGLAELVRIQGKTDAAGQYLARMEDGYWAAVGYMNLAADFARDDLDSSRALVSLRVAMAMAAKDTDTSRSRALLDQLNLRAGYLALGSDDYDKAIDFLEKVSLESYHTPQALYLHGLALSSKGNHRAAMQSWHRAKKFPLAFPGVSDAWIGMGRGYDLSGYPGQAGESWLAANAAYEGERVTLGKLSERITAEGAYKALVQDARSDDIQWFLADNRTLTQPRMAYLLRFMEEPGAQVAVRRVARLDEMVATLDASKYNLEVFIQALEVFMASAGSGGVAPQTAGLEQQQSDLESRLNGLVEQAATPAQVAELRQLKQSLAGAGRRMGALNQQVVQRPERLETVLDDAGALRDATKDLRYKTLSLREQAARELDALALAFVKKQTQRMTHALDKTEQQIAHLYEYLALENLGEGAQ | failed |
| MNGRRERAQGTEWAGDPAGCGTMERMPSALPDGEPVPADGALPASALAGAADRPLGFYLHVPYCATRCGYCDFNTYTATELRGTGGVLASRDNYADTLVDEVRLARKVLGDDPREVRTVFVGGGTPTLLAAGDLVRMLGAIRDEFGLAPDAEITTEANPESVDPAYLATLRAGGFNRISFGMQSAKQHVLKILDRTHTPGRPEACVAEARAAGFDHVNLDLIYGTPGESDDDWRASLDAALGAGPDHVSAYALIVEEGTQLARRIRRGEVPMTDDDVHADRYLIAEEALSAAGYDWYEVSNWATSDAGRCLHNELYWRGADWWGAGPGAHSHVGGVRWWNVKHPGAYAGALAAGKSPGAGREILTDEDRRVERILLELRLREGVPLSLLREAGLAASRRALSEGLLQEGPYEAGSAVLTLRGRLLADAVVRDLVD | failed |
| MNGSNHMKNKTLVISGATRGIGKAIFVRFAQSGVNIAFTYNKNVEEANKIIEDVEQKYSIKAKAYSLNVLEPEQYTELFKQIDADFDRVDFFISNAIIYGRSVVGGFAPFMRLKPKGLNNIYTATVLAFVVGAQEAAKRMQKIGGGAIVSLSSTGNLVYMPNYAGHGNSKNAVETMVKYAAVDLGEFNIRVNAVSGGPIDTDALKAFPDYVEIKEKVEEQSPLKRMGNPNDLAGAAYFLCDETQSGWLTGQTIVVDGGTTFK | failed |
| MNHRDKQIDSGSGSGENRRTYDCDICKRGFTNPQALGGHNNIHRRERERYPSSSSSSHSFPFSLPLPSQSPSSSTNFTNPPPYFPTIESYLHQGSQPPINPSHNTQYFGSSSSSRGGGRFAQGASHDLNLSLGLGSMNEDDDTHRSPPETGGSQPQDGDLDLDLRLGGHRHH | failed |
| MNHRLAGIISPLGHITTDPIRSSSVNPSSPVYYKTIVNHFKSQTGNHVSPGLTNQEISAVESSHGFSFPLDLRSILQTGLPVGTNFPNWRTGSNRNNLLLPLLNLSQHVVRNGFWVDSWGIRPGNDAEALSLVKKLIEIAPVLVPVYGDFYVPSTTPNLAGNPVFQIDGDGVRELSCDVVGFLKGIGRSETPTEDRRRRRRPRRVEFWSDVAEGWRFVVARDYTRDWWSALGFEGLTACLDDAFWKLREAGWTEDDVRDMMMMDSVDQNTCIQQQTQTQSRDVVYAFGDEGMNERDRDTCTEDEDHQKGEVTTLRHLLLYDRLMS | failed |
| MNHWSMPPNPEKALMLAQRAVAVFVYDAVRLEGINFTLPEVQTLLQGVTVGGHRLSDQQIAVNQGEAWKLLFQMIRDGRFELTPDCAMALHGVAAKEEALEWGCFRSGSVLIAGTEYEPPAASELPTRFDRMIDELQHMDDVHDQAVHLFLTMARCQFFYDVNKRMGRFMMNGHLLSNGYPAINIPASSQLEFNELMLRFYDSGDQREMNAFVRSCMDERVVLIMKEELEHHHHHH | failed |
| MNIFIAGLNYNMSEAELGELFAEYGEVVSVKIIMDRETGRSKGYGFVEMADDEAGDKAIAALNEVDMDGKTLSVSVARPREERPRRSYGNNGGGGYRGGNNSRGGGYGGSRGDNGYGGGRNRY | failed |
| MNIGRHLLLVLFGWLPVRLGFAADAISVVDKQPVNWVAITMFAVFVLITLWITQWAAKKTRSSADFYTAGGTVTGFQNGLAIAGDYVSAASFLGITSAVMANGYDGMLYAIGFLVGWPILTFLIAERLRNLGKYTFADVVAYRFAATSVRLFASVSTLVVVLCYLIAQMVGAGALIRLLFGLDYWVAMVLVGGLMMVYVLFGGMAATTWVQIIKAVLLLIGATFMAVMIMRRFGFNFEGLFASAVEVKTQIAMAGGKSGEEAKALGLSIMAPGSFIKDPISAISLGIALVFGTAGLPHILMRFFTVPDARQARHSVLWAITWIGYCYILMFIIGFGAIVLVLANPQYADIASGTIRGGQGAANMAAVLVAKVVGGNVFMGFVSAVAFATILAVVAGLALSGASAVSHDVYAMVIKQGKPSSDTELLVSRVTTAVLGVVAVLLGIVFQKQNVAFMVSLAFAIAASANFPVLVLSLFWKNCTTRGAVIGGFLGLISSLVLTVLSPSVWVDTLGHSVDSVRFPYTSPALFSMTIGFVGIWLFSVLDRSGRAAKERVAFKAQQVRAETGLGASKMSPN | failed |
| MNIKLKRTLISLVAFSMTCLPFVGTGSSVKAASNDATINVAAKHQTIRGFGASSAWCGALSDTCMDTLYKNAGLDILRVRIAPNEGWNRGDYRAWADELSNAKKVRARGGIVFATPWTPPASMKTNNTTTGANKGSLKPSSYAAYAAYLKTFVKYMSDNGAPLYALSLQNEPDWAPDYDACTWTAQQFHDFLKQYGASLSSTIKIIMPESLGFNPAMSDPTLNDPTTAQYVSIIGGHLYGSPIRDYPLARNKGKDIWMTEHYLEGNDPGTCVKLAKEIHDCMTIGNMNAYVYWWISGDQNGLYNTRTNETYKKTYVMGQFSKFIGNGYSRVDATNSPQSNVYVSAYTGNNKVVIVAINQGTYPVNQSFNVQNSTVSNVSSWVSSGTLNMAKTNSNISAANGRFNASLPAQSVTTFVADLNSTNPTTDPTTNPTPGSTVTLNNGWYYIKNINAQKYLQVASNTGKAGQNVELGSGSGAAGQKWYLTNTGDGYVTLKSALGNYMLDVSYGENKDGSNIQIFNAYSGDAQKFSVKASSKDGQYFVSTKSSNGTKVLDDYNFGTADGTNVCQWTYGGNANQLWAFEPTNN | failed |
| MNIKSAFIRKRGEKFYVYVEYIEETTGKIKQKSYGSYEKKKDAEKHLIEIKSTINNNKFVAPKDITFVERCYKYIDMNKNNWSPYTVTSTKSWVKNYIEPFFKNLKLTEVNPSSVQAFVNYNFNNSTFTSAKVRYSFLSSVIREAYRLREIQENSCDFIKLPSKEKYSTNEIYNREEVLLLIEKLLGNNIEIPILLMLLLGLRMGEATGLRWSDVDLDNNLINVNQILVYSNGKISFKEPKTPKSKRALSAPKELIEKLKIEKLRQSKLKLQGILENKNNLVCLNTNLNPFLPSSLRKTFHNFTKKNNLKKIRIHDLRHTSATLLLLGGTNMKVVSERLGHTDIKITMNRYSHVLKEMDKEASDNLSELLFK | failed |
